Results published in publication PMC7862700, “An all-to-all approach to the identification of sequence-specific readers for epigenetic DNA modifications on cytosine”.

Columns and labels:
ETS2 = target: T1, ETS2 (Homo sapiens, UniProt P15036 1-469); assay: BLI (OCTET); EMSA: 25 mM HEPES pH 8.0, 100 mM NaCl, 50 mM KAc, 5 mM MgCl2, 5% glycerol, 1 mM DTT, 0.1 mg/mL BSA, ~22 C, 5 nM probe; OCTET: 50 mM HEPES pH 8.0, 100 mM NaCl, 50 mM KAc, 5 mM MgCl2, 40 mM glutathione, 5 mg/mL BSA, 0.05% Tween-20; settings: protein: recombinant; tags: N-terminal GST; label: 5' biotin on strand 2 (Bio-T7 primer); blunt
T1 sequence: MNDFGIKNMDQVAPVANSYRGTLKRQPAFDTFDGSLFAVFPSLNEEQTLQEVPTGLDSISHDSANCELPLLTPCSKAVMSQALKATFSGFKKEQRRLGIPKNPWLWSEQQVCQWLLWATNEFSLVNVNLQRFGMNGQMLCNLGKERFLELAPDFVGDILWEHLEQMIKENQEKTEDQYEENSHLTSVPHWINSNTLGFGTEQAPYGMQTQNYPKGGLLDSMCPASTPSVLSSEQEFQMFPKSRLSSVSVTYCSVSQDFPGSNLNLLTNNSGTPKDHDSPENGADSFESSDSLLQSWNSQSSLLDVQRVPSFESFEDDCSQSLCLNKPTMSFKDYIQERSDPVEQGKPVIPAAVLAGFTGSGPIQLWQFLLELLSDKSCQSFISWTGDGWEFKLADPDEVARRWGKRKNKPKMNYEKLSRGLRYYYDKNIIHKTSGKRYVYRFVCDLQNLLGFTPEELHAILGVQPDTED

SPDEF = target: T2, SPDEF (Homo sapiens, UniProt O95238 1-335); assay: as above; settings: protein: recombinant; tags: N-terminal GST; label: 5' biotin on strand 2 (Bio-T7 primer); blunt
T2 sequence: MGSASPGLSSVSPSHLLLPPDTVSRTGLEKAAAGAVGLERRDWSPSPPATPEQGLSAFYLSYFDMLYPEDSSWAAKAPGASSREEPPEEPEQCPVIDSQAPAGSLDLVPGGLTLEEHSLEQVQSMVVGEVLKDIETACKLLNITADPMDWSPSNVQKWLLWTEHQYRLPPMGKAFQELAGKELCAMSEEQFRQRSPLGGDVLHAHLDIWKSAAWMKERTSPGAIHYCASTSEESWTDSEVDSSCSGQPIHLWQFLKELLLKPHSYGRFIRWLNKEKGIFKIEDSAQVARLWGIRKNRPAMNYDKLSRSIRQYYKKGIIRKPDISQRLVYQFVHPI

B1: ETS family probe (dsDNA)
DNA 1: ACTTCCGGTTATAGTGAGTGCTATTA
DNA 2: TAATAGCACTCACTATAACCGGAAGT
Kd (ETS2): 1.8 nM
Kd (SPDEF): 132 nM
